Measurements published in patent publication US6248712.

Assays:
[1] = molecular target: u-PA bound to u-PAR on the cell surface (human) (UniProt P00749); assay: association rate constant from inhibition kinetics of plasminogen activation by u-PAR-bound u-PA on U937 cells
[2] = molecular target: u-PA bound to u-PAR on the cell surface (human) (UniProt P00749); assay: inhibition kinetics, u-PAR-bound u-PA on U937 cells against u-PA in solution
[3] = molecular target: u-PA bound to u-PAR on the cell surface (human) (UniProt P00749); assay: association rate constant from inhibition kinetics of plasminogen activation by u-PAR-bound u-PA on PMA-stimulated U937 cells
[4] = molecular target: u-PA bound to u-PAR on the cell surface (human) (UniProt P00749); assay: inhibition kinetics, u-PAR-bound u-PA on PMA-stimulated U937 cells against u-PA in solution
[5] = molecular target: human urokinase-type plasminogen activator, active two-chain 54 kD form (human) (UniProt P00749)
[6] = molecular target: u-PA bound to u-PAR on the cell surface (human) (UniProt P00749)
[7] = molecular target: human single-chain pro-u-PA (human) (UniProt P00749)

Sequence of plasminogen activator inhibitor type 2 (P05120 whole entry): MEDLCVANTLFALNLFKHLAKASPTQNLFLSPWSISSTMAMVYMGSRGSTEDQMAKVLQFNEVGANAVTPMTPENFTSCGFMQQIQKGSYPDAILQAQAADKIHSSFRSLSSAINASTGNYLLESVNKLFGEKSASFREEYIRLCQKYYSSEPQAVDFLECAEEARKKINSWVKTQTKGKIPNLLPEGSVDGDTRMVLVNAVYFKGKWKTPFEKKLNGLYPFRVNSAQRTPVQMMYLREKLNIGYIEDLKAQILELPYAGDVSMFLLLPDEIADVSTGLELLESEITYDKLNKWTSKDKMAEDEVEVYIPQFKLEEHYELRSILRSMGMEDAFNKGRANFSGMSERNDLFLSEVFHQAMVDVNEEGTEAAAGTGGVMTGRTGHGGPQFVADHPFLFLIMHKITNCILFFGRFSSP
Sequence of human plasmin (P00747 97-810 limits assumed): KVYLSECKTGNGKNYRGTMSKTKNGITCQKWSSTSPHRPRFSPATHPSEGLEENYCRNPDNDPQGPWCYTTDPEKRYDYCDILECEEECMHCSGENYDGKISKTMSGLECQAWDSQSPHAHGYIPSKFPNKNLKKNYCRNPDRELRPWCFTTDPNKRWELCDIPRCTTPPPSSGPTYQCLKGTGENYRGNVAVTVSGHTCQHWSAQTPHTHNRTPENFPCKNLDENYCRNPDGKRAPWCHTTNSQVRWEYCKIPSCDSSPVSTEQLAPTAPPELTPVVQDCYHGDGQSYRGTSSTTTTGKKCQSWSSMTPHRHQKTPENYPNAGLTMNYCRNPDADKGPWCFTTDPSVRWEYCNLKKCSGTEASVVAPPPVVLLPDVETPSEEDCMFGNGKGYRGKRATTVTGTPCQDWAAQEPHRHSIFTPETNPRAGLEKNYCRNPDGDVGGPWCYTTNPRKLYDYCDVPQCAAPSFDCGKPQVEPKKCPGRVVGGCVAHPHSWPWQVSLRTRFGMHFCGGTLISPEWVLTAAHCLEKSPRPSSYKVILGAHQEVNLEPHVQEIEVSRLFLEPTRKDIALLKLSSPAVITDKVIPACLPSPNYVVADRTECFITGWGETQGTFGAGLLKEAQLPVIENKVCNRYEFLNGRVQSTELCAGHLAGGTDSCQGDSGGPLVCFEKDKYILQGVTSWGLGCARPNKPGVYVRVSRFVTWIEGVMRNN

Substance | kon [1] [M⁻¹ s⁻¹] | rate of inhibition relative to u-PA in solution [2] [%] | kon [3] [M⁻¹ s⁻¹] | rate of inhibition relative to u-PA in solution [4] [%] | Bound plasmin activity (%) at 3 h and 17 h; u-PA activity in medium (%) [5] [%] | Bound plasmin activity (%) after preincubation of the cells and washing [6] [%] | association-rate constant relative to u-PA in solution [2] [%] | generation of u-PA amidolytic activity from pro-u-PA (ng/ml equivalent two-chain u-PA per min) [7]
plasminogen activator inhibitor type 1 (from UniProt P05121) | 4.5e+06 | 60 | 1.7e+06 | 20 | – | – | – | –
plasminogen activator inhibitor type 2 (from UniProt P05120) | 330000 | – | 110000 | – | 48 | 54 | 60 | –
human plasmin (from UniProt P00747) (enzyme) | – | – | – | – | – | – | – | 0.6
